Data as given in publication PMC5303823, “DEK-targeting DNA aptamers as therapeutics for inflammatory arthritis”.

Target: T1, DEK (recombinant, baculovirus) (UniProt P35659 1-375)
T1 sequence: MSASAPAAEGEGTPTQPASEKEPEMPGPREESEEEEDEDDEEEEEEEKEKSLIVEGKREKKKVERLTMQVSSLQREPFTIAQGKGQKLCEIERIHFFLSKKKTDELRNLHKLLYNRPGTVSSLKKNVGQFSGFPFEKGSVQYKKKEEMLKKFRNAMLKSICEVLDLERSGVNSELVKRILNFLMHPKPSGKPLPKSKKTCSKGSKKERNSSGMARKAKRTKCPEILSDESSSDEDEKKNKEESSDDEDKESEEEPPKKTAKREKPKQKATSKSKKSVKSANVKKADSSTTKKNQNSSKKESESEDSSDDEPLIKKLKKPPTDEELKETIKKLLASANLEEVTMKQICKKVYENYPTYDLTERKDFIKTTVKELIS
Assay: pull-down, biotinylated aptamer on magnetic beads, immunoblot; two DEK concentrations, overnight 4 C; Selection and dot blot: 20 mM Tris pH 7.6, 100 mM NaCl, 5 mM MgCl2 (selection at room temperature; dot blot with 100 ug/ml salmon sperm DNA); pull-down: overnight at 4 C, PBS washes
Details: protein: recombinant; tags: His tag (SELEX resin); label: biotin (pull-down on magnetic beads)

GGGGTTAAATATTCCCACATTGCCTGCGCCAGTACAAATAG (ssDNA) [DTA-64]
binding result: binds
